Experiment [1] concerns the target ROR122 shuffle variant (Ig-like domain of ROR1, CRD and kringle domain of ROR2) (human (ROR1/ROR2 chimera)) (UniProt Q01973). Kind of experiment: cell imaging (CellInsight) on CHO cells expressing the shuffle construct.
The target of experiment [2] is ROR112 shuffle variant (Ig-like domain and CRD of ROR1, kringle domain of ROR2) (human (ROR1/ROR2 chimera)) (UniProt Q01973). Described as above.
ROR112 shuffle variant (Ig-like domain and CRD of ROR1, kringle domain of ROR2) (human (ROR1/ROR2 chimera)), sequence (Q01973 other isoform, or with tags, fused parts or gaps mutant limits assumed): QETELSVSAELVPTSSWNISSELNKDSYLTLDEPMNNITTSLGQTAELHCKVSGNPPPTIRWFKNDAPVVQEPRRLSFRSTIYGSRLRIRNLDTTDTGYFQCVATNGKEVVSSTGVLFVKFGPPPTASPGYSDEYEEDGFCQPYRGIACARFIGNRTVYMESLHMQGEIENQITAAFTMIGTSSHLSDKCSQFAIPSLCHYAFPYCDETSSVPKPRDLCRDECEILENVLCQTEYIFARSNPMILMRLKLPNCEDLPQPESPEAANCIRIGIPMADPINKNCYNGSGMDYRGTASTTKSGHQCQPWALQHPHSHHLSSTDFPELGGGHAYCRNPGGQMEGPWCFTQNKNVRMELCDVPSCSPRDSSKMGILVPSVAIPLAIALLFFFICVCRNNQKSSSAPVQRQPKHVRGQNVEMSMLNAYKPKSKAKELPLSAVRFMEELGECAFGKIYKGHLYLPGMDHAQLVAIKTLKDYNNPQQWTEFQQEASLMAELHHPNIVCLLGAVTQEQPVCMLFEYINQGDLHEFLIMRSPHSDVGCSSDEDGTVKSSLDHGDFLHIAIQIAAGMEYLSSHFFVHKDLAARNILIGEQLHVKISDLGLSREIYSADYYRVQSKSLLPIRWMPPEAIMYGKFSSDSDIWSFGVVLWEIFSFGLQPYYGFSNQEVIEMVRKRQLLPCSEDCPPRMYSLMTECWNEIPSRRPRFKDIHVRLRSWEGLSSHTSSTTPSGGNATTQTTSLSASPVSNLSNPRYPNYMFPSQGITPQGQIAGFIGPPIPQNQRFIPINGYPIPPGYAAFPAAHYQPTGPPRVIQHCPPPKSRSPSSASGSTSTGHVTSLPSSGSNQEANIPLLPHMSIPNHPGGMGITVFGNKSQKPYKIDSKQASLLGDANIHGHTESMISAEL

ROR122 shuffle variant (Ig-like domain of ROR1, CRD and kringle domain of ROR2) (human (ROR1/ROR2 chimera)), sequence (Q01973 other isoform, or with tags, fused parts or gaps mutant limits assumed): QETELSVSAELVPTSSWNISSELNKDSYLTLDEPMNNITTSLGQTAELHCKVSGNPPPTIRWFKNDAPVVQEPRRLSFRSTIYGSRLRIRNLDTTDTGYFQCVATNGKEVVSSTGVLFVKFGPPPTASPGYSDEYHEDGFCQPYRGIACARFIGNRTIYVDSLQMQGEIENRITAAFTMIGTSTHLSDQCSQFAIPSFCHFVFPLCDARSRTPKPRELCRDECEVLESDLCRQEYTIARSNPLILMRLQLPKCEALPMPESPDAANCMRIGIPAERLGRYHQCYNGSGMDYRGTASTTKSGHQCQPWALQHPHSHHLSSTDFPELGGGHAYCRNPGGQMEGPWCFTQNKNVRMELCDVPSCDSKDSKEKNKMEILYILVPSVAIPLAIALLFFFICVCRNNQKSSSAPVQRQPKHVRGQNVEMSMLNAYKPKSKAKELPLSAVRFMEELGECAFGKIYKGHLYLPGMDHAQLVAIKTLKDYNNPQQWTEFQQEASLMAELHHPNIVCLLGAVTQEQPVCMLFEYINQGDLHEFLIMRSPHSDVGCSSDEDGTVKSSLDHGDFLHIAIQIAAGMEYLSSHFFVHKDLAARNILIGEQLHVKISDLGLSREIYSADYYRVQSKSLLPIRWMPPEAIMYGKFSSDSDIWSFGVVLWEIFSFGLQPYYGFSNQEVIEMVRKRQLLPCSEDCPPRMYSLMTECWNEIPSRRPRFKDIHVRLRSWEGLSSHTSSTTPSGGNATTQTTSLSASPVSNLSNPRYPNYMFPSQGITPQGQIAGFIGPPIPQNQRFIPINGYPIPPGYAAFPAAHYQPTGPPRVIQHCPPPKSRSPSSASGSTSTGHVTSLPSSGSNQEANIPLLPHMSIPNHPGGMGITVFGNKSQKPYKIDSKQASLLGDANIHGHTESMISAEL

B1: chIgG1-ROR2-A (antibody, V domains shown)
VH: QSVEESGGRLVTPGTPLTLTCTVSGFSLSSYSMSWVRQAPGKGLEWIGVIYVNSKTWYANWAKGRFTISKTSTTVDLKITSPTTEDTATYFCARGDAGYTTNSWLWGPGTLVTVSS
VL: AFELTQTPASVSEPVGGTVTIKCQASESIDNYCSWYQQKPGQPPKLLIYQAFKLASGVPSRFRGSGSGTQFTLTISDLESDDAATYYCQSYSGISTTAFGGGTEVVVK
Regarding B1, the RFU (total spot intensity) in experiment [1] and in experiment [2] was above 12000 RFU each time.

The values are drawn from patent publication US20230365714A1.
